Experimental data as given in patent publication US20240033359A1 (Takeda / Millennium, published 2024).
Positions count from the first letter of the chain named.

B1: V51 anti-GCC single domain VH antibody (VHH)
VHH: EVQLVESGGGLVQPGGSLRLSCAASGFTFSRYWMTWVRQAPGKGLEWVAKIRHDGGEKYYADSVKGRFTISRDNAKNSLYLQMNSLRAEDTAVYYCTRDYNKDYWGQGTLVTVSS
notes: Human heavy chain variable single domain antibody (VH only), tested as recombinant purified VH; No tags are stated
B2: V36 anti-GCC single domain VH antibody (VHH)
VHH: B1 VHH with V12A, K43G, G44R, R52K, H53Y, G56S, N84D
notes: as for B1
B3: V5 anti-GCC single domain VH antibody (VHH)
VHH: B1 VHH with E1Q, A23T, T35S, A61V, T97A, R98T, N101T, K102R, Y104V, L110A
notes: as for B1
B4: V48 anti-GCC single domain VH antibody (VHH)
VHH: B1 VHH with S21T, A61P, I70V, N84D, S85N, V93M, Y104L
notes: as for B1
B5: V1 anti-GCC single domain VH antibody (VHH)
VHH: QVQLQESGPGLVKPSETLSLTCTVSGASISHYYWSWFRQPAGKGLEWIGRIYPSGSTSYNPSLKSRVAMSVDTPKNQFSLNLSSVTAADTAVYYCARDRSTGWSEWNSDLWGRGTLVTVSS
notes: Human heavy chain variable single domain antibody (VH only, no light chain), tested as recombinant purified VH; also called V1 VH

Biological target: T1, human guanylyl cyclase C (GCC), as used in the Octet binding assay (human, UniProt P25092 24-430, limits assumed)
T1 construct: also called STAR; GUC2C
Test: Octet BLI, 1:1 model
Description: Single domain heavy chain antibodies (VH) were generated that specifically target human GCC (e.g., anti-GCC binders provided in Tables 1-3). […] Binding kinetics were determined using an Octet binding assay. These were measured in real-time bio-layer interferometer based biosensor Octet (ForteBio). All the binding studies were performed in HBS-ET Octet kinetics buffer. Biosensors were always washed in Octet kinetics buffer in between different steps. A seven point, two-fold dilution series of each VH was made. The contact time for each of the association steps was 300 seconds and the dissociation step was varied between 400-600 seconds. Kinetic association (ka) and dissociation (kd) rate constants were determined by processing and fitting the data to a 1:1 binding model using ForteBio Analysis software.

T1 sequence (P25092 24-430 limits assumed): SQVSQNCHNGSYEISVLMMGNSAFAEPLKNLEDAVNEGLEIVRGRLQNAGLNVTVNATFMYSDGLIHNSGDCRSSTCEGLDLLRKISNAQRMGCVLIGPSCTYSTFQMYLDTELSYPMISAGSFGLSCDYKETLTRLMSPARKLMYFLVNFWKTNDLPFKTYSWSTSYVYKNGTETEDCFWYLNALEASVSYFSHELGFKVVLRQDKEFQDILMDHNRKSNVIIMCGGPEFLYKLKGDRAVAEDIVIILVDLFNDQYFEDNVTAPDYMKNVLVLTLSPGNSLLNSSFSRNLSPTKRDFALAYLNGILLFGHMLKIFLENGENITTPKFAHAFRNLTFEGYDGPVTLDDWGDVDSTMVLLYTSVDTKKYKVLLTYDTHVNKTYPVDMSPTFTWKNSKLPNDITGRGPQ

| Kd | koff | Binder |
| --- | --- | --- |
| 9.54 nM | 0.00185 s⁻¹ | B1 |
| 105 nM | 0.0035 s⁻¹ | B2 |
| 7.71 nM | 0.000719 s⁻¹ | B3 |
| 1.38 nM | 0.000341 s⁻¹ | B4 |
| 0.329 nM | 0.000208 s⁻¹ | B5 |

Biological target: T2, GCC on CT26 cells
T2 construct: whole, on cells; That the target is GCC is inferred from this context
Test: flow cytometry on CT26 cells, dose response
Description: Binding of single domain antibodies to CT26 cells was measured using flow cytometry. CT26 cells were incubated with serially diluted VH and fluorescence was measured by flow cytometry. Anti-GCC VH antibodies were confirmed for binding to CT26 cells by a FACS dose response assay to obtain an on cell binding EC50 (nM) as shown in Table 4.

T2 sequence (Q3UWA6 whole entry): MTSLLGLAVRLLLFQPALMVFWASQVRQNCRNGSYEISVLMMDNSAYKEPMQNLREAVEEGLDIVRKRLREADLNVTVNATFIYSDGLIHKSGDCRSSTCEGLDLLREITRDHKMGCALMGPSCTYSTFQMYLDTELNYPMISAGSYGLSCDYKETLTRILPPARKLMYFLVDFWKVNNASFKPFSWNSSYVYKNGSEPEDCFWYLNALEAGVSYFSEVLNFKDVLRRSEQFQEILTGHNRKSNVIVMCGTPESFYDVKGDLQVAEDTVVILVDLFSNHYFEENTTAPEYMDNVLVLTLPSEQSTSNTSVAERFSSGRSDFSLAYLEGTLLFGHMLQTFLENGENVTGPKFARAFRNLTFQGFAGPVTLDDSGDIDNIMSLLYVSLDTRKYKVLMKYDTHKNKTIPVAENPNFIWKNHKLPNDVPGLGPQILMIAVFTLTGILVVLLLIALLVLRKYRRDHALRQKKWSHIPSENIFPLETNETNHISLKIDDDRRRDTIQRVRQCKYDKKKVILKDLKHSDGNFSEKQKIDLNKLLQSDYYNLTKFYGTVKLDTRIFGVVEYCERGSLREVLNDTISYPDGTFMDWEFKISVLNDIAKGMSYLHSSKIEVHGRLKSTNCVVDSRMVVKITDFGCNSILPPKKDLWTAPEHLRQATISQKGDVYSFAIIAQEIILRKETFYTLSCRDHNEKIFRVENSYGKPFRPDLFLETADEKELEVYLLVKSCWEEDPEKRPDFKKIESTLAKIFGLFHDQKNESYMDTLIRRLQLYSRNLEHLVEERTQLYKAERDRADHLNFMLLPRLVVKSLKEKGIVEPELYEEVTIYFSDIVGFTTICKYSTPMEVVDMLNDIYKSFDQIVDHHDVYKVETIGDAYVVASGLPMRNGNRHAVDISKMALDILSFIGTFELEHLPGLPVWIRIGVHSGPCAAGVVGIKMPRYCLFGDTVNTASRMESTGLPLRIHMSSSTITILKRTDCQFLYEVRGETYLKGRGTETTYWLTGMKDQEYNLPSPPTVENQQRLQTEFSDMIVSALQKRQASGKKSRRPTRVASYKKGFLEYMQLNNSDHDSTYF

| EC50 | Binder |
| --- | --- |
| 1.52 nM | B3 |
| 1.01 nM | B4 |
| 0.72 nM | B5 |
